Where a chain is given by its changes, count along the chain named.

Experiment [1] concerns the target CD3 (as used for the BIACORE kinetics of Table 11) (UniProt P07766). Description: SPR (BIACORE). A general note: SPR reads the build-up and loss of mass on a sensor chip optically.
The next experiment addresses CD3 on T-cells (UniProt P07766). Briefly: cell-based or functional assay.

CD3 (as used for the BIACORE kinetics of Table 11), sequence (P07766 23-126): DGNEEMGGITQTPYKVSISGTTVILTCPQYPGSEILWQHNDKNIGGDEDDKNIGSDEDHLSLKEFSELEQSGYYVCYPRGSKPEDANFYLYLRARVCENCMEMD
CD3 on T-cells, sequence (P07766 23-207): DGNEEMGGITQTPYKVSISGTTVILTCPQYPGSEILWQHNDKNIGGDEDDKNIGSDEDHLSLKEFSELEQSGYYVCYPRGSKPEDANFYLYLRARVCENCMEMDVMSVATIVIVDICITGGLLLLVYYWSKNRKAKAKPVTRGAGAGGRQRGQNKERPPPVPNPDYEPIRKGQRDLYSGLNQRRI

B1: DART-A-M8 (bispecific antibody)
chain 1: DFVMTQSPDSLAVSLGERVTMSCKSSQSLLNSGNQKNYLTWYQQKPGQPPKLLIYWASTRESGVPDRFSGSGSGTDFTLTISSLQAEDVAVYYCQNDYSYPYTFGQGTKLEIKGGGSGGGGEVQLVESGGGLVQPGGSLRLSCAASGFTFSTYAMNWVRQAPGKGLEWVGRIRSKYNNYATYYADSVKDRFTISRDDSKNSLYLQMNSLKTEDTAVYYCVRHENFGNSYVSWFAYWGQGTLVTVSSGGCGGGKVAALKEKVAALKEKVAALKEKVAALKE
chain 2: QAVVTQEPSLTVSPGGTVTLTCRSSTGAVTTSNYANWVQQKPGQAPRGLIGGTNKRAPWTPARFSGSLLGGKAALTITGAQAEDEADYYCALWYSNLWVFGGGTKLTVLGGGGSGGGGEVQLVQSGAELKKPGASVKVSCKASGYTFTDYYMKWVRQAPGQGLEWIGDIIPSNGATFYNQKFKGRVTITVDKSTSTAYMELSSLRSEDTAVYYCARSHLLRASWFAYWGQGTLVTVSSGGCGGGEVAALEKEVAALEKEVAALEKEVAALEK
Regarding B1, in experiment [1], the Kd turned out to be 0.00691 µM, the R (KD ratio to DART-A-WT) was found to be 0.8, the R (ka ratio to DART-A-WT) is 2.3 and the R (kd ratio to DART-A-WT) was 1.9. In experiment [1], the koff is 0.00784 s⁻¹ and the kon was 1.13e+06 M⁻¹ s⁻¹. For the same molecule, in the experiment with CD3 on T-cells, the EC50 of cytolysis at 18 hours (CTL assay, Pan-T-cells and MOLM-13, E:T = 5:1) stood at 0.069 ng/mL; the EC50 of cytolysis at 42 hours (CTL assay, Pan-T-cells and MOLM-13, E:T = 5:1) worked out at 0.005 ng/mL; the R: ratio of 18 hour EC50 to DART-A-WT (CTL assay, Pan-T-cells and MOLM-13, E:T = 5:1) came to 0.9; the R: ratio of 42 hour EC50 to DART-A-WT (CTL assay, Pan-T-cells and MOLM-13, E:T = 5:1) was 1.7. For the same molecule, in the experiment with CD3 on T-cells, the max % CytoTox at 18 hours (CTL assay, Pan-T-cells and MOLM-13, E:T = 5:1) amounted to 38.4%; the max % CytoTox at 42 hours (CTL assay, Pan-T-cells and MOLM-13, E:T = 5:1) was 29.4%.

B2: DART-A-M9 (bispecific antibody)
chain 1: B1 chain 1 with E223K
chain 2: B1 chain 2
With B2, in experiment [1], the Kd is 0.00333 µM, the R (KD ratio to DART-A-WT) was determined as 0.4, the R (ka ratio to DART-A-WT) came out at 4.3 and the R (kd ratio to DART-A-WT) came out at 1.8. Besides, in experiment [1], the koff was determined as 0.00716 s⁻¹ and the kon was found to be 2.15e+06 M⁻¹ s⁻¹. In addition, in the experiment with CD3 on T-cells, the EC50 of cytolysis at 18 hours (CTL assay, Pan-T-cells and MOLM-13, E:T = 5:1) turned out to be 0.075 ng/mL; the EC50 of cytolysis at 42 hours (CTL assay, Pan-T-cells and MOLM-13, E:T = 5:1) is 0.001 ng/mL; the R: ratio of 18 hour EC50 to DART-A-WT (CTL assay, Pan-T-cells and MOLM-13, E:T = 5:1) stood at 1; the R: ratio of 42 hour EC50 to DART-A-WT (CTL assay, Pan-T-cells and MOLM-13, E:T = 5:1) amounted to 0.4. In addition, in the experiment with CD3 on T-cells, the max % CytoTox at 18 hours (CTL assay, Pan-T-cells and MOLM-13, E:T = 5:1) was 38.2%; the max % CytoTox at 42 hours (CTL assay, Pan-T-cells and MOLM-13, E:T = 5:1) was 30.5%.

B3: DART-A-M4 (bispecific antibody)
chain 1: B1 chain 1 with E223G, Y229A
chain 2: B1 chain 2
Regarding B3, in experiment [1], the Kd was found to be 0.0257 µM, the R (KD ratio to DART-A-WT) turned out to be 3.1, the R (ka ratio to DART-A-WT) worked out at 1.6 and the R (kd ratio to DART-A-WT) was determined as 5. In experiment [1], this molecule showed a koff of 0.0203 s⁻¹ and a kon of 790000 M⁻¹ s⁻¹. Further, in the experiment with CD3 on T-cells, the EC50 of cytolysis at 18 hours (CTL assay, Pan-T-cells and MOLM-13, E:T = 5:1) amounted to 0.176 ng/mL; the EC50 of cytolysis at 42 hours (CTL assay, Pan-T-cells and MOLM-13, E:T = 5:1) came to 0.011 ng/mL; the R: ratio of 18 hour EC50 to DART-A-WT (CTL assay, Pan-T-cells and MOLM-13, E:T = 5:1) worked out at 2.2; the R: ratio of 42 hour EC50 to DART-A-WT (CTL assay, Pan-T-cells and MOLM-13, E:T = 5:1) was 3.9. For the same molecule, in the experiment with CD3 on T-cells, the max % CytoTox at 18 hours (CTL assay, Pan-T-cells and MOLM-13, E:T = 5:1) is 41.7%; the max % CytoTox at 42 hours (CTL assay, Pan-T-cells and MOLM-13, E:T = 5:1) was found to be 29.8%.

B4: DART-A-M22 (bispecific antibody)
chain 1: B1 chain 1 with E223K, W232Y
chain 2: B1 chain 2
Regarding B4, in experiment [1], the Kd is 0.0066 µM, the R (KD ratio to DART-A-WT) came out at 0.8, the R (ka ratio to DART-A-WT) turned out to be 4.7 and the R (kd ratio to DART-A-WT) is 3.8. Further, in experiment [1], the koff was found to be 0.0156 s⁻¹ and the kon worked out at 2.37e+06 M⁻¹ s⁻¹. In the experiment with CD3 on T-cells, the EC50 of cytolysis at 18 hours (CTL assay, Pan-T-cells and MOLM-13, E:T = 5:1) came out at 0.072 ng/mL; the EC50 of cytolysis at 42 hours (CTL assay, Pan-T-cells and MOLM-13, E:T = 5:1) was found to be 0.01 ng/mL; the R: ratio of 18 hour EC50 to DART-A-WT (CTL assay, Pan-T-cells and MOLM-13, E:T = 5:1) was 0.9; the R: ratio of 42 hour EC50 to DART-A-WT (CTL assay, Pan-T-cells and MOLM-13, E:T = 5:1) is 3.5. In the experiment with CD3 on T-cells, this molecule yielded a max % CytoTox at 18 hours (CTL assay, Pan-T-cells and MOLM-13, E:T = 5:1) of 38.3%; a max % CytoTox at 42 hours (CTL assay, Pan-T-cells and MOLM-13, E:T = 5:1) of 31.6%.

B5: DART-A-M3 (bispecific antibody)
chain 1: B1 chain 1 with E223G, G226I
chain 2: B1 chain 2
B5: in experiment [1], the Kd turned out to be 0.0185 µM, the R (KD ratio to DART-A-WT) worked out at 2.3, the R (ka ratio to DART-A-WT) turned out to be 0.9 and the R (kd ratio to DART-A-WT) is 2. Also, in experiment [1], the off-rate (koff) stood at 0.0083 s⁻¹ and the kon came to 449000 M⁻¹ s⁻¹. Moreover, in the experiment with CD3 on T-cells, the EC50 of cytolysis at 18 hours (CTL assay, Pan-T-cells and MOLM-13, E:T = 5:1) was determined as 0.108 ng/mL; the EC50 of cytolysis at 42 hours (CTL assay, Pan-T-cells and MOLM-13, E:T = 5:1) stood at 0.006 ng/mL; the R: ratio of 18 hour EC50 to DART-A-WT (CTL assay, Pan-T-cells and MOLM-13, E:T = 5:1) came to 1.4; the R: ratio of 42 hour EC50 to DART-A-WT (CTL assay, Pan-T-cells and MOLM-13, E:T = 5:1) worked out at 2.3. In the experiment with CD3 on T-cells, this molecule showed a max % CytoTox at 18 hours (CTL assay, Pan-T-cells and MOLM-13, E:T = 5:1) of 39.7%; a max % CytoTox at 42 hours (CTL assay, Pan-T-cells and MOLM-13, E:T = 5:1) of 28.6%.

B6: DART-A-M6 (bispecific antibody)
chain 1: B1 chain 1 with E223G, Y229Q
chain 2: B1 chain 2
For B6, in experiment [1], the Kd was 0.0288 µM, the R (KD ratio to DART-A-WT) came to 3.5, the R (ka ratio to DART-A-WT) is 1.4 and the R (kd ratio to DART-A-WT) is 4.9. In experiment [1], this molecule registered a koff of 0.0201 s⁻¹ and a kon of 699000 M⁻¹ s⁻¹. In the experiment with CD3 on T-cells, the EC50 of cytolysis at 18 hours (CTL assay, Pan-T-cells and MOLM-13, E:T = 5:1) was 0.162 ng/mL; the EC50 of cytolysis at 42 hours (CTL assay, Pan-T-cells and MOLM-13, E:T = 5:1) came to 0.011 ng/mL; the R: ratio of 18 hour EC50 to DART-A-WT (CTL assay, Pan-T-cells and MOLM-13, E:T = 5:1) was 2.1; the R: ratio of 42 hour EC50 to DART-A-WT (CTL assay, Pan-T-cells and MOLM-13, E:T = 5:1) was determined as 3.9. In the experiment with CD3 on T-cells, this molecule came in with a max % CytoTox at 18 hours (CTL assay, Pan-T-cells and MOLM-13, E:T = 5:1) of 41.9%; a max % CytoTox at 42 hours (CTL assay, Pan-T-cells and MOLM-13, E:T = 5:1) of 29.5%.

B7: DART-A-M11 (bispecific antibody)
chain 1: B1 chain 1 with E223G, W232F
chain 2: B1 chain 2
In the case of B7, in experiment [1], the Kd stood at 0.0192 µM, the R (KD ratio to DART-A-WT) came to 2.4, the R (ka ratio to DART-A-WT) turned out to be 2.8 and the R (kd ratio to DART-A-WT) came to 6.5. In experiment [1], this molecule yielded a koff of 0.0267 s⁻¹ and a kon of 1.39e+06 M⁻¹ s⁻¹. Further, in the experiment with CD3 on T-cells, the EC50 of cytolysis at 18 hours (CTL assay, Pan-T-cells and MOLM-13, E:T = 5:1) is 0.223 ng/mL; the EC50 of cytolysis at 42 hours (CTL assay, Pan-T-cells and MOLM-13, E:T = 5:1) turned out to be 0.016 ng/mL; the R: ratio of 18 hour EC50 to DART-A-WT (CTL assay, Pan-T-cells and MOLM-13, E:T = 5:1) was 2.8; the R: ratio of 42 hour EC50 to DART-A-WT (CTL assay, Pan-T-cells and MOLM-13, E:T = 5:1) came to 5.8. In the experiment with CD3 on T-cells, this molecule gave a max % CytoTox at 18 hours (CTL assay, Pan-T-cells and MOLM-13, E:T = 5:1) of 48.5%; a max % CytoTox at 42 hours (CTL assay, Pan-T-cells and MOLM-13, E:T = 5:1) of 32.4%.

The term Kd denotes the equilibrium constant for the complex coming apart. A higher Kd goes with a looser complex. For orientation: koff means the first-order rate constant of dissociation. The low end stands for slow dissociation, the high end for fast dissociation. By kon is commonly meant the second-order rate constant of association. High values mean fast association, low ones slow association.

The values above are taken from patent US20240043537A1.
